Measurements reported in patent US20230212319A1, “NOVEL ANTIGEN BINDING DOMAINS AND SYNTHETIC ANTIGEN RECEPTORS INCORPORATING THE SAME” (University of Southern California, priority 2020, published 2023).

B1: 22076 (protein)
chain: MALPVTALLLPLALLLHAARPQLQLQESGPGLVKPSETLSLTCTVSGDSISSGDYYWGWIRQPPGKGLEWIGHIYYSGVTYYNPSLKSRVTISVDTSRNQFSLKLSSVTAADTAVYYCTREDSSNWRSRGQGTLVTVSSLESGGGGSFEQVQLVESGGGLVQPGGSLRLSCAASGFTFTNHAMSWVRQAPGKGLELVSSISGNGRTTYYADSVKGRFTISRDISKNTLDLQMNSLRAEDTAVYYCAKDGGETLVDSRGQGTLVTVSSTRASTKGPSVFPLAPSSKSTSGGTAALGCLVKDYFPEPVTVSWNSGALTSGVHTFPAVLQSSGLYSLSSVVTVPSSSLGTQTYICNVNHKPSNTKVDKRVEPKSCIPEDTFFPSPESSCDVKLVEKSFETDTNLNFQNLSVIGFRILLLKVAGFNLLMTLRLWSSRAKRSGSGVKQTLNFDLLKLAGDVESNPGPSRGHMTEYKPTVRLATRDDVPRAVRTLAAAFADYPATRHTVDPDRHIERVTELQELFLTRVGLDIGKVWVADDGAAVAVWTTPESVEAGAVFAEIGPRMAELSGSRLAAQQQMEGLLAPHRPKEPAWFLATVGVSPDHQGKGLGSAVVLPGVEAAERAGVPAFLETSAPRNLPFYERLGFTVTADVEVPEGPRTWCMTRKPGA
B2: 22073 (protein)
chain: MALPVTALLLPLALLLHAARPQLQLQESGPGLVKPSETLSLTCTVSGDSISSGDYYWGWIRQPPGKGLEWIGHIYYSGVTYYNPSLKSRVTISVDTSRNQFSLKLSSVTAADTAVYYCTREDSSNWRSRGQGTLVTVSSLEGQPKANPTVTLFPPSSEELQANKATLVCLISDFYPGAVTVAWKADGSPVKAGVETTKPSKQSNNKYAASSYLSLTPEQWKSHRSYSCQVTHEGSTVEKTVAPTECSGRADCGFTSESYQQGVLSATILYEILLGKATLYAVLVSALVLMAMVKRKDSRGRAKRSGSGATNFSLLKQAGDVEENPGPTSMDWIWRILFLVGAATGAHSFEVQLLESGGGLIQPGGSLRLSCAASGFTFSSHAMTWVRQAPGKGLEWVSAISGSGDYTHYADSVKGRFTISRDNSKNTVYLQMNSLRAEDSAVYYCAKDEDGGSLLGHRGQGTLVTVSSTRIQNPDPAVYQLRDSKSSDKSVCLFTDFDSQTNVSQSKDSDVYITDKCVLDMRSMDFKSNSAVAWSNKSDFACANAFNNSIIPEDTFFPSPESSCDVKLVEKSFETDTNLNFQNLSVIGFRILLLKVAGFNLLMTLRLWSSRAKRSGSGVKQTLNFDLLKLAGDVESNPGPSRGHMTEYKPTVRLATRDDVPRAVRTLAAAFADYPATRHTVDPDRHIERVTELQELFLTRVGLDIGKVWVADDGAAVAVWTTPESVEAGAVFAEIGPRMAELSGSRLAAQQQMEGLLAPHRPKEPAWFLATVGVSPDHQGKGLGSAVVLPGVEAAERAGVPAFLETSAPRNLPFYERLGFTVTADVEVPEGPRTWCMTRKPGA
B3: 22087 (protein)
chain: MALPVTALLLPLALLLHAARPQVQLVESGGGLVQPGGSLRLSCAASGFTFTNHAMSWVRQAPGKGLELVSSISGNGRTTYYADSVKGRFTISRDISKNTLDLQMNSLRAEDTAVYYCAKDGGETLVDSRGQGTLVTVSSLEGSGGGGSGGGGSGEDLKNVFPPEVAVFEPSEAEISHTQKATLVCLATGFYPDHVELSWWVNGKEVHSGVCTDPQPLKEQPALNDSRYCLSSRLRVSATFWQNPRNHFRCQVQFYGLSENDEWTQDRAKPVTQIVSAEAWGRADCGFTSESYQQGVLSATILYEILLGKATLYAVLVSALVLMAMVKRKDSRGRAKRSGSGATNFSLLKQAGDVEENPGPTSMDWIWRILFLVGAATGAHSFEEVQLLESGGGLVQPGGSLRLSCAASGFTFSSYAMSWVRQAPGKGLEWVSSISGSGDYIYYADSVKGRFTISRDISKNTLYLQMNSLRAEDTAVYYCAKEGTGANSSLADYRGQGTLVTVSSTRGSIPEDTFFPSPESSCDVKLVEKSFETDTNLNFQNLSVIGFRILLLKVAGFNLLMTLRLWSS
B4: 22089 (protein)
chain: MALPVTALLLPLALLLHAARPQLQLQESGPGLVKPSETLSLTCTVSGDSISSGDYYWGWIRQPPGKGLEWIGHIYYSGVTYYNPSLKSRVTISVDTSRNQFSLKLSSVTAADTAVYYCTREDSSNWRSRGQGTLVTVSSLEGSGRADCGFTSESYQQGVLSATILYEILLGKATLYAVLVSALVLMAMVKRKDSRGRAKRSGSGATNFSLLKQAGDVEENPGPTSMDWIWRILFLVGAATGAHSFEVQLLESGGGLIQPGGSLRLSCAASGFTFSSHAMTWVRQAPGKGLEWVSAISGSGDYTHYADSVKGRFTISRDNSKNTVYLQMNSLRAEDSAVYYCAKDEDGGSLLGHRGQGTLVTVSSTRIQNPDPAVYQLRDSKSSDKSVCLFTDFDSQTNVSQSKDSDVYITDKCVLDMRSMDFKSNSAVAWSNKSDFACANAFNNSIIPEDTFFPSPESSCDVKLVEKSFETDTNLNFQNLSVIGFRILLLKVAGFNLLMTLRLWSSRAKRSGSGVKQTLNFDLLKLAGDVESNPGPSRGHMTEYKPTVRLATRDDVPRAVRTLAAAFADYPATRHTVDPDRHIERVTELQELFLTRVGLDIGKVWVADDGAAVAVWTTPESVEAGAVFAEIGPRMAELSGSRLAAQQQMEGLLAPHRPKEPAWFLATVGVSPDHQGKGLGSAVVLPGVEAAERAGVPAFLETSAPRNLPFYERLGFTVTADVEVPEGPRTWCMTRKPGA
B5: 22147 (protein)
chain: MALPVTALLLPLALLLHAARPACEVQLLESGGGLIQPGGSLRLSCAASGFTFSSHAMTWVRQAPGKGLEWVSAISGSGDYTHYADSVKGRFTISRDNSKNTVYLQMNSLRAEDSAVYYCAKDEDGGSLLGHRGQGTLVTVSSGTGGGGSGGGGSGGGGSEFDIQMTQSPSSLSASVGDRVTITCRASQDISNYLNWYQQKPGKAVKLLIYYTSILHSGVPSRFSGSGSGTDYTLTISSLQPEDFATYFCQQGNTLPWTFGGGTKVEIKLEADVSPKPTIFLPSIAETKLQKAGTYLCLLEKFFPDVIKIHWQEKKSNTILGSQEGNTMKTNDTYMKFSWLTVPEKSLDKEHRCIVRHENNKNGVDQEIIFPPIKTDVITMDPKDNCSKDANDTLLLQLTNTSAYYMYLLLLLKSVVYFAIITCCLLRRTAFCCNGEKSRAKRSGSGATNFSLLKQAGDVEENPGPTSMDWIWRILFLVGAATGAHSGPQVQLQESGGGLAQAGGSLRLSCAASGRTFSMGWFRQAPGKEREFVAAITYSGGSPYYASSVRGRFTISRDNAKNTVYLQMNSLKPEDTAVYYCAANPTYGSDWNAENWGQGTQVTVSSGSGGGGSGGGGSGGGGSFEVQLVESGGGLVKPGGSLKLSCAASGFAFSIYDMSWVRQAPGKGLEWVAYISSGGGTTYYPDTVKGRFTISRDNAKNTLYLQMSSLRAEDTAMYYCARHSGYGSSYGVLFAYWGQGTLVTVSSTRPHTKPSVFVMKNGTNVACLVKEFYPKDIRINLVSSKKITEFDPAIVISPSGKYNAVKLGKYEDSNSVTCSVQHDNKTVHSTDFEVKTDSTDHVKPKETENTKQPSKSCHKPKAIVHTEKVNMMSLTVLGLRMLFAKTVAVNFLLTAKLFFLRAKRSGSGVKQTLNFDLLKLAGDVESNPGPSRGHMTEYKPTVRLATRDDVPRAVRTLAAAFADYPATRHTVDPDRHIERVTELQELFLTRVGLDIGKVWVADDGAAVAVWTTPESVEAGAVFAEIGPRMAELSGSRLAAQQQMEGLLAPHRPKEPAWFLATVGVSPDHQGKGLGSAVVLPGVEAAERAGVPAFLETSAPRNLPFYERLGFTVTADVEVPEGPRTWCMTRKPGA
B6: 22078 (protein)
chain: MALPVTALLLPLALLLHAARPQLQLQESGPGLVKPSETLSLTCTVSGDSISSGDYYWGWIRQPPGKGLEWIGHIYYSGVTYYNPSLKSRVTISVDTSRNQFSLKLSSVTAADTAVYYCTREDSSNWRSRGQGTLVTVSSLESGGGGSFEEVQLLESGGGLVQPGGSLRLSCAASGFTFSSYAMSWVRQAPGKGLEWVSSISGSGDYIYYADSVKGRFTISRDISKNTLYLQMNSLRAEDTAVYYCAKEGTGANSSLADYRGQGTLVTVSSTRASTKGPSVFPLAPSSKSTSGGTAALGCLVKDYFPEPVTVSWNSGALTSGVHTFPAVLQSSGLYSLSSVVTVPSSSLGTQTYICNVNHKPSNTKVDKRVEPKSCEVKTDSTDHVKPKETENTKQPSKSCHKPKAIVHTEKVNMMSLTVLGLRMLFAKTVAVNFLLTAKLFFLRAKRSGSGVKQTLNFDLLKLAGDVESNPGPSRGHMTEYKPTVRLATRDDVPRAVRTLAAAFADYPATRHTVDPDRHIERVTELQELFLTRVGLDIGKVWVADDGAAVAVWTTPESVEAGAVFAEIGPRMAELSGSRLAAQQQMEGLLAPHRPKEPAWFLATVGVSPDHQGKGLGSAVVLPGVEAAERAGVPAFLETSAPRNLPFYERLGFTVTADVEVPEGPRTWCMTRKPGA

These molecules were tested on RAJI cells (assay: JNG assay, co-culture with RAJI cells). Conditions: JNG cells expressing construct, co-culture with Raji.
Assay type: cell-based
Procedure, shortened: (§1)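 Jurkat-NFAT-GFP (JNG) cells stably expressing SAR constructs via lentiviral transduction and puromycin/blasticidin selection were cocultured with target cells at E:T ~1:2 for ~4–18 h. NFAT-driven GFP was measured by FACS versus parental JNG cells; scores +/- to 5+ denote ~5–50% GFP-positive cells.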

| Molecule | NFAT-GFP ASSAY: Raji |
| --- | --- |
| B1 | +/- (refer to approximately 5%, 10%, 20%, 30%, 40% and 50% GFP positive cells) |
| B2 | +/- (refer to approximately 5%, 10%, 20%, 30%, 40% and 50% GFP positive cells) |
| B3 | + (refer to approximately 5%, 10%, 20%, 30%, 40% and 50% GFP positive cells) |
| B4 | + (refer to approximately 5%, 10%, 20%, 30%, 40% and 50% GFP positive cells) |
| B5 | + (refer to approximately 5%, 10%, 20%, 30%, 40% and 50% GFP positive cells) |
| B6 | +/- (refer to approximately 5%, 10%, 20%, 30%, 40% and 50% GFP positive cells) |

What follows are molecules tested on L363 cells (assay: JNG assay, co-culture with L363 cells). Conditions: co-culture with L363.
Assay type: cell-based
Procedure, shortened: as §1

| Molecule | NFAT-GFP ASSAY: L363 |
| --- | --- |
| B1 | + (refer to approximately 5%, 10%, 20%, 30%, 40% and 50% GFP positive cells) |
| B2 | +/- (refer to approximately 5%, 10%, 20%, 30%, 40% and 50% GFP positive cells) |
| B3 | 2+ (refer to approximately 5%, 10%, 20%, 30%, 40% and 50% GFP positive cells) |
| B4 | 2+ (refer to approximately 5%, 10%, 20%, 30%, 40% and 50% GFP positive cells) |
| B5 | + (refer to approximately 5%, 10%, 20%, 30%, 40% and 50% GFP positive cells) |
| B6 | +/- (refer to approximately 5%, 10%, 20%, 30%, 40% and 50% GFP positive cells) |
